We go through two molecules from patent US20240174744A1 (SCIRHOM, published 2024).

For the assay, the target named is T1, dog iRhom2 full length wild type, C-terminally tagged with 3 consecutive copies of the T7 epitope (dog, UniProt Q00M95 1-827).
T1 construct: whole, on cells; also called Dog-iR2-FL-WT-T7
T1 sequence: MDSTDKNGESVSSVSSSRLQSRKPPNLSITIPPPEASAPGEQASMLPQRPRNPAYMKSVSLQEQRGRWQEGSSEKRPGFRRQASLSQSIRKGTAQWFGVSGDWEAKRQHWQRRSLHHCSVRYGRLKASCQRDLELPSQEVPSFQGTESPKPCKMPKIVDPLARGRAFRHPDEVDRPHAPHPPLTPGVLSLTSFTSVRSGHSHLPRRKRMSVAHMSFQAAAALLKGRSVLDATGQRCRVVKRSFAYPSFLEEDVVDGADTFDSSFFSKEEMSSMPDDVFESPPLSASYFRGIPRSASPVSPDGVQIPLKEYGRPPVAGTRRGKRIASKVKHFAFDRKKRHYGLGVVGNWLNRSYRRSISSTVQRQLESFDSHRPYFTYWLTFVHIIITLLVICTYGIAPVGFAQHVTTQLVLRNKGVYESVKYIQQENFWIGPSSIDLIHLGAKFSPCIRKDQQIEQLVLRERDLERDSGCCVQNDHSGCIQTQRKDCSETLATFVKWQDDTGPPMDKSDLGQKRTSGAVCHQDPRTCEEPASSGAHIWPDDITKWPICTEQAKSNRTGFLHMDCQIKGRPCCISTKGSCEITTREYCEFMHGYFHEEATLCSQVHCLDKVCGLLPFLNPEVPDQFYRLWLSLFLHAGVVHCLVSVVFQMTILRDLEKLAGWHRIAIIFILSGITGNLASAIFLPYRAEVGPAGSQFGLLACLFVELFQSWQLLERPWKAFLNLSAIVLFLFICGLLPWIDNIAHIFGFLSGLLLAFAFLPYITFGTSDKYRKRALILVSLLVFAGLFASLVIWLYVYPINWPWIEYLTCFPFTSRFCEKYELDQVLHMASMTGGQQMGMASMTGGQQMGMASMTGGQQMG
The assay is described as follows: FACS, MEF-DKO-dog-iR2-FL-WT-T7 cells, 3 µg/ml. Here is the method:
In brief, immortalized MEF-DKO-EV control cells, MEF-DKO-rhesus-iR2-FL-WT-T7 cells, MEF-DKO-cyno-iR2-FL-WT-T7 cells, MEF-DKO-dog-iR2-FL-WT-T7 cells and MEF-DKO-rabbit-iR2-FL-WT-T7 cells, as well as their respective iRhom1 counterparts, were harvested with 10 mM EDTA in PBS, washed and resuspended in FACS buffer (PBS, 3% FBS, 0.05% sodium azide), and seeded in Nunc U-bottom 96-well plates (Thermo Fisher Scientific, USA) at approximately 3×10⁵ cells per well. To pellet cells and remove supernatants, the plates were centrifuged at 1,500 rpm and 4° C. for 3 minutes. For primary staining, cells were resuspended in 100 μl per well of either FACS buffer alone (controls), mouse monoclonal anti-T7 IgG (Merck Millipore, USA) at 3 μg/ml FACS buffer or the antibodies of the present disclosure also at 3 μg/ml FACS buffer and incubated on ice for 1 hour. Afterwards, plates were centrifuged at 1,500 rpm and 4° C. for 3 minutes and washed twice with 200 μl per well of FACS buffer. For secondary staining, cells were spun down and resuspended in 100 μl per well of PE-conjugated goat anti-mouse IgG F(ab′)2 detection fragment (Dianova, Germany) diluted 1:100 in FACS buffer. Protected from light, the cell suspensions were incubated on ice for 1 hour. […] Finally, cells were resuspended in 150 μl per well of FACS buffer and analyzed using a BD Accuri™ C6 Plus flow cytometer (Becton Dickinson, Germany).

B1: antibody 3 (antibody, V domains shown)
VH: QVTLKESGPGILQPSQTLSLTCSFSGFSLTTFAMGIGWVRQPSGKGLEWLAHIWWDGEKYNNPVLKSRLTISKDTSKNQVFLRIANVDTPDTATYYCARISSIYYIIDNWGQGTSVTVSS
VL: DIVLTQSPATLSVTPGHSVSLSCRASQSISNNLHWYQKKSHESPRLLIKYVSQSISGIPSRFSGSGSGTDFTLSINSVETEDFGMYFCQQSYNWPLTFGAGTKLELK
notes: Mouse IgG, kappa light chain; also called clone #3; purified antibody 3
As to B1, the binding result is listed as “binds”.

B2: antibody 5 (antibody, V domains shown)
VH: QVTLKESGPGILQPSQTLSLTCSFSGFSLSTFGMGVGWIRQPSGKGLEWLAHIWWDDEKYYNSALKSRLTISKATSKNQAFLKIANVDTADTATYYCARISNYGSNYWYFNVWGTGTTVTVSS
VL: QVVLTQSPALMSASPGEKVTMTCSAGSSVSCMYWYQQKPGSSPRVLIYDTSNLASGVPARFTGSGSGTSYSLTISRMEAEDAASYYCQQWNSYPLTFGAGTKLELK
notes: Mouse IgG, kappa light chain; also called clone #5; purified antibody 5
In the case of B2, the binding result is listed as “binds”.
